Data set [1] deals with caveolin-1 phosphorylation on tyrosine 14. Kind of data set: Phospho-caveolin-1. The class given is cell-based, human. The following applies: Src kinase inhibitor pretreatment before Aβ42; hCMEC/D3 cells; western blotting.
Data set [2] has as its system polarized hCMEC/D3 cell monolayers. In words: Energy dependent uptake of F-Aβ, flow cytometry with or without ATP depletion. The class given is in vitro ADME, human. The conditions noted are these: 1 μM, 30 min; flow cytometry histograms.
For data set [3], the system named is lysosomal compartment. The following applies: from 25 nM in extracellular fluid; ref [58]; cited from earlier work.

As to `Cc1ccc(-c2nn(C(C)(C)C)c3ncnc(N)c23)cc1` [PP1], the “effect of pretreatment on Aβ42 induced caveolin-1 phosphorylation” value in data set [1] is listed as “block the phosphorylation”. Regarding “F-Aβ40: fluorescently labeled soluble Aβ40”, the “intra-endothelial accumulation in ATP depleted cells compared to control cells” value in data set [2] is listed as “significantly reduced”.

On to “F-Aβ42: fluorescently labeled soluble Aβ42”, for which the “intra-endothelial accumulation in ATP depleted cells compared to control cells” value in data set [2] is “significantly reduced”. With amyloid beta peptide 42 [Aβ42], in data set [3], the “concentration in the lysosomal compartment” value was 2500 nM.
